Experimental data reported in PMC10050374.
Values joined by “and” are separate entries in the source; they are usually repeats but may differ in a detail not shown here. Identical values can stand only once.

Target: pyruvate kinase M2 (mouse (endogenous in kidney tissue)) (UniProt P52480)
Assay: cross-linking; mouse kidney tissue incubated in 250 uM disuccinimidyl suberate (DSS) for 30 min at room temperature, 8% SDS-PAGE, Western blot for PKM2; control mice, HFD-STZ-induced DN mice, and mice given acrolein scavengers (NAC, hydralazine, carnosine)

Sequence of pyruvate kinase M2, P52480 1-531 (enzyme) (P52480 whole entry): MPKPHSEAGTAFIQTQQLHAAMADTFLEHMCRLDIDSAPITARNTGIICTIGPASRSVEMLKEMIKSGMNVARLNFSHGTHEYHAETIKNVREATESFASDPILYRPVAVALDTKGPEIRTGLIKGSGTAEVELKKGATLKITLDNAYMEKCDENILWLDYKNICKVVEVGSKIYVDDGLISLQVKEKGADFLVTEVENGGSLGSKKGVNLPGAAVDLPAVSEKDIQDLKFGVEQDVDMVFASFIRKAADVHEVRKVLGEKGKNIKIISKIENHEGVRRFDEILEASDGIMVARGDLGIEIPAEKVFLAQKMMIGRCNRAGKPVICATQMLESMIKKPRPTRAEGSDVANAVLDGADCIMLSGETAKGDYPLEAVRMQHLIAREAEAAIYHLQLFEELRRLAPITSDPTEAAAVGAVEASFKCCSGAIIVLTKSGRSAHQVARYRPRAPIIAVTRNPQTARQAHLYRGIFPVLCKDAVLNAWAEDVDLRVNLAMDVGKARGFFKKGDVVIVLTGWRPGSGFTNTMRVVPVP

stoichiometry N: 2 and 4
Substance: pyruvate kinase M2, P52480 1-531 (enzyme)
